Assay results reported in patent US6642368B1, “Programmed cell death and caspase-12” (The General Hospital Corporation, priority 1998, dated 2003).

Tests used:
caspase-12Δ2 = target: T1, caspase-12Δ2 (Mus musculus, UniProt O08736); assay: Inhibition of cleavage of pro-caspase-12 by purified caspase-12Δ2; format: biochemical; settings: preincubation 1 mM DTNB 25° C. 60 min or 2 mM iodoacetamide 0° C. 60 min
T1 construct: made in house; host or cells: E. coli BL21(DE3) pLys
Procedure: ICE, casp-2 and casp-3 were cloned into a pET-15b vector (Novagen) and their expression was induced in the presence of 0.2-0.3 mM IPTG (Wang, S., et a., J. Biol. Chem. 271:20580-20587 (1996); Cryns, V. L., et al., J. Biol. Chem. 271:31277-31282 (1996)). Bacterial lysates containing the ICE-like proteases were prepared as described (Wang, S., et al., J. Biol. Chem. 271:20580-20587 (1996); Cryns, V. L., et al., J. Biol. Chem. 271:31277-31282 (1996)). [^35S]-labeled proteins were prepared by in vitro transcription and translation using a TNT coupled reticulocyte lysate system (Promega) and [^35S]methionine (Amersham). Labeled proteins were incubated at 37° C. with purified caspase-12Δ2 or at 30° C. with E. coli lysates containing the caspase family members. The reaction mixture contained 25 mM Hepes (pH 7.5) with 5 mM EDTA, 5 mM dithiothreitol, 10% sucrose, 10 μg/ml leupeptin and 250 μM phenylmethylsulfonyl fluoride. Amount of proteins used for cleavage reaction were: 0.1 μg for partially purified caspase-12Δ2, 25-70 μg for E. coli lysate. […] Cleavage products were analyzed by either 10- or 15% SDS-polyacrylamide gel electrophoresis. […]

Rat-1/bcl-2 = assay: Effect of cell death suppressor bcl-2 on caspase-12 killing activity; format: cell-based
Procedure: FIGS. 5A-5B. Effect of cell death suppressors on the killing activity of caspase-12. […] Cell death was assayed as described in FIG. 4C. […] The data from transfection of the parental cell line, Rat-1 (FIG. 4C), are included in the figures for comparison. The lacZ construct was also used for transfection as a control.
To determine if expression of bcl-2 and crmA can inhibit apoptosis induced by casp-12 overexpression, casp-12L-lacZ fusion construct was transfected into stable cell lines of Rat-1 that overexpresses either bcl-2 or crmA (Miura, M., et al., Cell 75:653-660 (1993)). Cell death was assayed as described above (Example 3). […] The magnitude of the bcl-2 suppression against toxicity of casp-12 overexpression was about 10% (60% for Rat-1, 50% for Rat-1/bcl-2) which is much smaller than that observed for ICE and casp-2 (FIG. 5A; Wang, L., et al., Cell 78:739-750 (1994)).

[1] = tested on: T2, pro-caspase-12 (caspase-12L, full-length precursor, 419 residues, 48 kDa)
T2 sequence: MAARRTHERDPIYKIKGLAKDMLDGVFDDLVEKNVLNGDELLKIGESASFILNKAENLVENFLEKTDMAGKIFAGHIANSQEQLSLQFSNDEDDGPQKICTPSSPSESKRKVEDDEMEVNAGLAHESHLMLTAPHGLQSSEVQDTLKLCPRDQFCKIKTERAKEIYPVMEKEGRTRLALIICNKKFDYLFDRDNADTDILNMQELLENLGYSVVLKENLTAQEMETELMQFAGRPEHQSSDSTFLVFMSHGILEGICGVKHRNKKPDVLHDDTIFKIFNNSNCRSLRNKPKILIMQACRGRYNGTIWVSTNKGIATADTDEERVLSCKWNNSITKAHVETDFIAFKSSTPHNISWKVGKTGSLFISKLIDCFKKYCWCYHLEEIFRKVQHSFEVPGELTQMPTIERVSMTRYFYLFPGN

[2] = tested on: T3, caspase-12Δ (Gly95-Asn419 of caspase-12L, with an artificial initiation codon), [35S]-labeled
T3 sequence: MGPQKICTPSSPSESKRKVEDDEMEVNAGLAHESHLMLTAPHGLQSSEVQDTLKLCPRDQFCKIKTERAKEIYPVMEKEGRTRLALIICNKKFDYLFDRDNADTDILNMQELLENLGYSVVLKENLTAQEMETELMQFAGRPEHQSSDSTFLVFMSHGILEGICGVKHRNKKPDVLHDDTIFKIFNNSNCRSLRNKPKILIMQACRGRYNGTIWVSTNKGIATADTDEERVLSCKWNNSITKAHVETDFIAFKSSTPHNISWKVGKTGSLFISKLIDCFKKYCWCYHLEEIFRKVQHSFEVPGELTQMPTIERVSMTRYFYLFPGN

Rat-1 cells = assay: Cell death induced by transient overexpression of lacZ fusion constructs, X-gal staining; format: cell-based; settings: lacZ fusion construct, 24 hr after transfection
Source text: FIGS. 4A-4C. Cell death induced by overexpression of caspase-12. […] The round cells expressing the casp-12L-lacZ fusion proteins show condensed and fragmented nuclei. […] The data shown are the percentage of round blue cells among total number of blue cells counted. In each transfection, over 200 blue cells were randomly chosen and counted. The data of Rat-1 cells collected from at least three independent experiments. The constructs used were: casp-12L-lacZ, casp-12S-lacZ, casp-12Δ-lacZ, ICE-lacZ, lacZ. Rat embryonic fibroblast cells (REF) were also transfected with either casp-12L-lacZ or lacZ.
To examine if expression of caspase-12 induces apoptosis, a transient expression system was used to overexpress caspase-12 in mammalian cells. […] Transfected cells are easily detected by staining with X-gal because of the β-galactosidase activity of lacZ. Expression constructs of casp-12L and casp-12S fused with lacZ gene in pcDNA3 vector, which contains the cytomegalovirus (CMV) promoter, were generated. These expression constructs were introduced into Rat-1 cells by transfection, and the expression of the genes were examined 24 hr after transfection using X-gal reaction.
Rat-1, rat embryonic fibroblast cells, NG108-15, HeLa and COS-1 were maintained in culture at 37° C. with 5% CO2 in Dulbecco's modified Eagle's medium containing 10% (v/v) fetal bovine serum (BioWhittaker) and 50 units/ml penicillin and 50 μg/ml streptomycin (Sigma). The day before transfection, cells were seeded at a density of 1.3×10^4 cells/cm^2. Expression constructs were transferred to cells with either calcium phosphate or lipofectamine (GIBCO BRL) as previously described (Miura, M., et al., Cell 75:653-660 (1993); Kumar, S., et al., Genes and Development 8:1613-1626 (1994); Wang, L., et al., Cell 78:739-750 (1994)). The expression of chimeric genes in cells was detected by staining of cells with 5-bromo-4-chloro-3-indolyl β-D-galactoside (X-gal) as previously described (Miura, M., et al., Cell 75:653-660 (1993); Kumar, S., et al., Genes and Development 8:1613-1626 (1994); Wang, L., et al., Cell 78:739-750 (1994)). Immunostaining of transfected cells was done as previously described using mouse monoclonal anti-lacZ antibody (Miura, M., et al., Cell 75:653-660 (1993); Kumar, S., et al., Genes and Development 8:1613-1626 (1994); Wang, L., et al., Cell 78:739-750 (1994)).

**Q.** Which “inhibition of proteolytic activity of caspase-12Δ2 by pretreatment with thiol reagent” value (caspase-12Δ2) does the source give for O=C(O)c1cc(SSc2ccc([N+](=O)[O-])c(C(=O)O)c2)ccc1[N+](=O)[O-] [5,5′-dithio-bis(2-nitrobenzoic acid)] here?
**A.** The value was “completely inhibited”.

**Q.** Which “magnitude of bcl-2 suppression against toxicity of casp-12 overexpression” value (Rat-1/bcl-2; 60% for Rat-1 versus 50% for Rat-1/bcl-2) does the source give for “Bcl-2: mammalian cell death suppressor, homolog of C. elegans ced-9” here?
**A.** Its value is “about 10%”.

**Q.** And the “inhibition of cell death induced by overexpression of casp-12” value (Rat-1/bcl-2; Rat-1/bcl-2, FIG. 5A)?
**A.** Its value is “only very weakly inhibited”.

**Q.** Which “in vitro cleavage of [35S]-labeled caspase-12 precursor by E. coli lysate containing the caspase” value [1] does the source give for “caspase-3 (E. coli lysate, expressed from pET-15b)” here?
**A.** Its value is “caspase-2 and caspase-3 can cleave pro-caspase-12 protein, generating smaller fragments of about 40 kDa”.

**Q.** What about the “in vitro cleavage of the [35S]-labeled truncated form” value [2] of the same molecule?
**A.** The value was “Caspase-3 treatment of the truncated form did not produce any smaller fragments”.

**Q.** Which “inhibition of proteolytic activity of caspase-12Δ2 by pretreatment with thiol reagent” value (caspase-12Δ2) does the source give for NC(=O)CI [iodoacetamide] here?
**A.** The value was “completely inhibited”.

**Q.** With “caspase-2 (E. coli lysate, expressed from pET-15b)” as the molecule, how does the “in vitro cleavage of [35S]-labeled caspase-12 precursor by E. coli lysate containing the caspase” value [1] read?
**A.** Its value is “Cleavage of pro-caspase-12 by caspase-2 generated a fragment of about 40 kDa at a lower cleavage efficiency, compared to caspase-3 digestion”.

B1: caspase-12Δ: truncated caspase-12, amino acid residues 95-419 of SEQ ID NO:2 (protein)
chain: GPQKICTPSSPSESKRKVEDDEMEVNAGLAHESHLMLTAPHGLQSSEVQDTLKLCPRDQFCKIKTERAKEIYPVMEKEGRTRLALIICNKKFDYLFDRDNADTDILNMQELLENLGYSVVLKENLTAQEMETELMQFAGRPEHQSSDSTFLVFMSHGILEGICGVKHRNKKPDVLHDDTIFKIFNNSNCRSLRNKPKILIMQACRGRYNGTIWVSTNKGIATADTDEERVLSCKWNNSITKAHVETDFIAFKSSTPHNISWKVGKTGSLFISKLIDCFKKYCWCYHLEEIFRKVQHSFEVPGELTQMPTIERVSMTRYFYLFPGN
modifications: lacZ fusion
**Q.** B1 was tested. Which “percentage of cell death (round blue cells among total blue cells)” value (Rat-1 cells) did it give?
**A.** Its value is 60%.

B2: caspase-12S: alternatively spliced short form of caspase-12, 349 amino acid residues (SEQ ID NO:14) (protein)
chain: MAARRTHERDPIYKIKEFSNDEDDGPQKICTPSSPSESKRKVEDDEMEVNAGLAHESHLMLTAPHGLQSSEVQDTLKLCPRDQFCKIKTERAKEIYPVMEKEGRTRLALIICNKKFDYLFDRDNADTDILNMQELLENLGYSVVLKENLTAQEMETELMQFAGRPEHQSSDSTFLVFMSHGILEGICGVKHRNKKPDVLHDDTIFKIFNNSNCRSLRNKPKILIMQACRGRYNGTIWVSTNKGIATADTDEERVLSCKWNNSITKAHVETDFIAFKSSTPHNISWKVGKTGSLFISKLIDCFKKYCWCYHLEEIFRKVQHSFEVPGELTQMPTIERVSMTRYFYLFPGN
modifications: lacZ fusion
**Q.** How did the “percentage of cell death (round blue cells among total blue cells)” value (Rat-1 cells) turn out when B2 was run?
**A.** The value was “about 60%”.
